Legend:
Assay in all cases: BLI
[1] = target: IN11 N2 (recombinant N2 neuraminidase head of H3N2 A/Indiana/08/2011) (Influenza A virus H3N2 A/Indiana/08/2011)
[2] = target: CO17 B NA (recombinant neuraminidase head of B/Colorado/06/2017, B/Victoria-lineage) (Influenza B virus B/Colorado/06/2017)
[3] = target: T1, PT09 N2 (recombinant N2 neuraminidase head of H3N2 A/Perth/16/2009) (Influenza A virus H3N2 A/Perth/16/2009)
T1 chain: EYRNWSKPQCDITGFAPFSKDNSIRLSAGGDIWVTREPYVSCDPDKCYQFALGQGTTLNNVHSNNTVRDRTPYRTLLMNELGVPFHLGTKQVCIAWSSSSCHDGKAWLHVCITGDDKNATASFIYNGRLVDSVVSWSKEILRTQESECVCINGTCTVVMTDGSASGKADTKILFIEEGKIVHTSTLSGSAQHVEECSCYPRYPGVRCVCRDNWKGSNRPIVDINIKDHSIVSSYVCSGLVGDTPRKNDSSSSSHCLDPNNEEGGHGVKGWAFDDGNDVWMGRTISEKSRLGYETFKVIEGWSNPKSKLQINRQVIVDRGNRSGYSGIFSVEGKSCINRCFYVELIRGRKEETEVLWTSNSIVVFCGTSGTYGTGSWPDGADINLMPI

B1: DA03E17 IgG (human monoclonal antibody) (antibody, V domains shown)
VH: EVQLVESGPGLVKPSQTLSLTCTVSGGSFSSGGYLWSWVRQHPGKGLEWIGYILYSGSPYYNPSLESRATISLDTSKNQFSLRLISVTAADAAMYYCARVDGSGNTDRYYFYGMDVWGQGTMVTVSS
VL: DIQMTQSPSSVSASVGDRVTITCRASRGIGDWLAWYQQKPGKAPKLLIYAASSLQRGVPSRFSGSGSGTDFTLTISSLQPDDFATYYCQQADGWEVWTFGQGTKVDVK
- Kd [1]: < 0.001 nM
- Kd [2]: 0.969 nM
- Kd [3]: < 0.001 nM

B2: DA03E17 Fab (Fab, V domains shown)
VH: EVQLVESGPGLVKPSQTLSLTCTVSGGSFSSGGYLWSWVRQHPGKGLEWIGYILYSGSPYYNPSLESRATISLDTSKNQFSLRLISVTAADAAMYYCARVDGSGNTDRYYFYGMDVWGQGTMVTVSS
VL: DIQMTQSPSSVSASVGDRVTITCRASRGIGDWLAWYQQKPGKAPKLLIYAASSLQRGVPSRFSGSGSGTDFTLTISSLQPDDFATYYCQQADGWEVWTFGQGTKVDVK
- Kd [1]: 4.53 nM
- Kd [2]: 913 nM
- Kd [3]: 31 nM
